The Kd is a measure of binding affinity in units of concentration. High values mean weaker binding, low ones tighter binding.

Where a chain is given by its changes, count along the chain named.

From patent US20130243743A1 (ACCELERON PHARMA, published 2013) come the findings set out here.

The chains are these.
T1: Activin A (UniProt P08476 311-426)
T1 sequence (looked up): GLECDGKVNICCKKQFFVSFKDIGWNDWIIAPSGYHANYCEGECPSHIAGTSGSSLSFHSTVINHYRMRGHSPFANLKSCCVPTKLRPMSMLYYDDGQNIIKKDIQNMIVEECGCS

T2: Growth and Differentiation Factor-11 (GDF11) (UniProt O95390 299-407)
T2 sequence (looked up): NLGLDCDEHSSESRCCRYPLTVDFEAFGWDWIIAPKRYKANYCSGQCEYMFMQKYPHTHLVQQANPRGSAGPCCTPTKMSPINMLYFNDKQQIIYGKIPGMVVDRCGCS

B1: ActRIIB(20-132)-hFc (Fc fusion, not shown: a dimerising Fc or GST)
chain: GRGEAETRECIYYNANWELERTNQSGLERCEGEQDKRLHCYASWRNSSGTIELVKKGCWLDDFNCYDRQECVATEENPQVYFCCCEGNFCNERFTHLPEAGGPEVTYEPPPTA
B2: ActRIIB(22-131)-hFc (Fc fusion, not shown: a dimerising Fc or GST)
chain: GEAETRECIYYNANWELERTNQSGLERCEGEQDKRLHCYASWRNSSGTIELVKKGCWLDDFNCYDRQECVATEENPQVYFCCCEGNFCNERFTHLPEAGGPEVTYEPPPT
B3: ActRIIB(23-131)-hFc (Fc fusion, not shown: a dimerising Fc or GST)
chain: EAETRECIYYNANWELERTNQSGLERCEGEQDKRLHCYASWRNSSGTIELVKKGCWLDDFNCYDRQECVATEENPQVYFCCCEGNFCNERFTHLPEAGGPEVTYEPPPT
B4: ActRIIB(20-134)-hFc (Fc fusion, not shown: a dimerising Fc or GST)
chain: GRGEAETRECIYYNANWELERTNQSGLERCEGEQDKRLHCYASWRNSSGTIELVKKGCWLDDFNCYDRQECVATEENPQVYFCCCEGNFCNERFTHLPEAGGPEVTYEPPPTAPT
B5: ActRIIB(21-131)-hFc (Fc fusion, not shown: a dimerising Fc or GST)
chain: RGEAETRECIYYNANWELERTNQSGLERCEGEQDKRLHCYASWRNSSGTIELVKKGCWLDDFNCYDRQECVATEENPQVYFCCCEGNFCNERFTHLPEAGGPEVTYEPPPT
B6: ActRIIB(24-131)-hFc (Fc fusion, not shown: a dimerising Fc or GST)
chain: AETRECIYYNANWELERTNQSGLERCEGEQDKRLHCYASWRNSSGTIELVKKGCWLDDFNCYDRQECVATEENPQVYFCCCEGNFCNERFTHLPEAGGPEVTYEPPPT
B7: ActRIIB(20-128)-hFc (Fc fusion, not shown: a dimerising Fc or GST)
chain: GRGEAETRECIYYNANWELERTNQSGLERCEGEQDKRLHCYASWRNSSGTIELVKKGCWLDDFNCYDRQECVATEENPQVYFCCCEGNFCNERFTHLPEAGGPEVTYEP
B8: ActRIIB(20-131)-hFc (Fc fusion, not shown: a dimerising Fc or GST)
chain: GRGEAETRECIYYNANWELERTNQSGLERCEGEQDKRLHCYASWRNSSGTIELVKKGCWLDDFNCYDRQECVATEENPQVYFCCCEGNFCNERFTHLPEAGGPEVTYEPPPT
B9: Soluble ActRIIB-Fc +15tail (Fc fusion)
chain: B4 chain with R45A
notes: not shown: linker and Fc

For one assay, the target named is T1, Activin A. Put plainly: cell-based or functional assay.
Details: not given
Take B1: the IC50, inhibition of ligand signalling, A-204 reporter gene assay (conditioned media) worked out at 0.032 mg/L.
For B2, the IC50, inhibition of ligand signalling, A-204 reporter gene assay (conditioned media) turned out to be 0.1 mg/L.
On the same count and under the same terms, in the case of B3 it was 0.043 mg/L; in that of B4, 0.022 mg/L.
The molecule B5 came in with an IC50, inhibition of ligand signalling, A-204 reporter gene assay (conditioned media) of 0.325 mg/L.
Still for that read-out and setting: with B6 the figure was 0.105 mg/L; with B7, 0.158 mg/L; with B8, 0.201 mg/L.

The same assay, now with this note: record 2.
Regarding B8, the IC50, inhibition of ligand signalling, A-204 reporter gene assay (conditioned media) was found to be 0.044 mg/L.

The next assay addresses T2, Growth and Differentiation Factor-11 …. Put plainly: cell-based or functional assay.
Details: not given
Molecule B1 registered an IC50, inhibition of ligand signalling, A-204 reporter gene assay (conditioned media) of 0.087 mg/L.
Still for that read-out and setting: with B2 the figure was 0.071 mg/L; with B3, 0.06 mg/L.
Consider B4, for which the “IC50, inhibition of ligand signalling, A-204 reporter gene assay (conditioned media)” value is 0.045 mg/L.
Still for that read-out and setting: in the case of B5 it was 0.121 mg/L; in that of B6, 0.069 mg/L; in that of B7, 0.13 mg/L.
B8 gave an IC50, inhibition of ligand signalling, A-204 reporter gene assay (conditioned media) of 0.183 mg/L.

Still in this assay, the particulars now being: record 2.
B8 came in with an IC50, inhibition of ligand signalling, A-204 reporter gene assay (conditioned media) of 0.12 mg/L.

For the next assay, the target named is T1, Activin A. Put plainly: Biacore SPR; ligand coupled to the device, receptor flowed (table reproduced from WO2006/012627); +15tail variant; ligand coupled to the device, receptor flowed over it (data from WO2006/012627).
Details: not given
A general note: In SPR one partner is held on a chip, and binding of the other changes the refractive index at the surface.
B9 showed a Kd of around 0.026 µM.

In a further assay the target is T2, Growth and Differentiation Factor-11 …. The description is as above.
Details: not given
With B9, the Kd came out at 0.019 µM.
